Reference: US20180348220

How the values were obtained:
Assay in all cases: flow
Conditions in all cases: whole cells, 4C
[1] = tested on: unidentified cell-surface target of MCF7 cells (Homo sapiens)
[2] = tested on: unidentified cell-surface target of T-47D cells (Homo sapiens)
[3] = tested on: unidentified cell-surface target of MDA-MB-231 cells (Homo sapiens)

Work on “CGGCGGTCNGTCGAACTGTNATGAGCGTGCCGCCGCGCGTAGCG [14A-MCF7mh (44DsDs)]” yielded a Kd ([1]; n = Ds, ±0.2) of 1.9 nM.
In the case of “GCGGCGAAGATCACNACTAGGGGNCCTCGCCGCCGCGTAGCG [03-T47Dmh]”, the Kd ([2]; n = Ds, ±3.0) is reported as 39.3 nM.
Sequence “GGCCCGGCTGGCATGTANTCATGCCTCCTGGNCTAAGGTTTCTAAAGGGCC [08B-MCF7 (51DsDs)]” has a Kd ([1]; n = Ds at 18 and 32, ±0.3) of 3.2 nM.
Sequence “CCCTCTTAAGTTTATAGNTGTCTTTTGGTNCCTAGGGCGTTTTAAAGGG [23-MB231b]” has a Kd ([3]; n = Ds, ±5.6) of 23.3 nM.
“GGCCCGGCTGGCATGTANTCATGCCTCCTGGNCTAAGGTTTCTAAAGGGCCCGCGTAGCG [08B-MCF7mh]” gave a Kd ([1]; n = Ds, ±0.1 (printed 01)) of 2.5 nM.
“GCGGCGAAGATCACNACTAGGGGNCCTCGCCGC [03-T47D (DsDs)]” was tested, and the Kd ([2]; n = Ds at 15 and 24, ±6.7) was 91.6 nM.
“GGCGCCAGGGGTGTTTGTGCCGTGAGNTGTGGCGCC [05-MB231GC]” gave a Kd ([3]; n = Ds, ±0.2) of 2.2 nM.
“CCGCGCAGCCTGGGNTCTCTTTTAGTCNAGTTCAATCGCGCGGCGCGTAGCG [07-MB231mh]” gave a Kd ([3]; n = Ds, ±0.3) of 2 nM.
In the case of “CCCTCTTAAGTTTATAGNTGTCTTTTGGTNCCTAGGGCGTTTTAAAGGGCGCGTAGCG [23-MB231bmh]”, the Kd ([3]; n = Ds, ±0.9) is reported as 2.5 nM.
Work on “GCGGTCNGTCGAACTGTNATGAGCGTGCCGCCGCGTAGCG [14A-MCF7mh (40DsDs)]” yielded a Kd ([1]; n = Ds, ±0.2) of 2.2 nM.
For “GGCCCGGCTGGCGAAGCCTCCTGGNCTAAGGTTTCTAAAGGGCCCGCGTAGCG [08B-MCF7mh2]”, the Kd ([1]; n = Ds, ±0.1) was 2.3 nM.
Sequence “GGCGCCAGGGGTGTTTGTGCCGTGAGNTGTGGCGCCCGCGTAGCG [05-MB231GCmh]” has a Kd ([3]; n = Ds, ±0.1) of 1.6 nM.
In the case of “CGGTCNGTCGAACTGTNATGAGCGTGCCGCGCGTAGCG [14A-MCF7mh (38DsDs)]”, the Kd ([1]; n = Ds, ±0.02) is reported as 2.6 nM.
“CTCTAGTCNGTCGAACTGTNATGAGCGTGCTAGGGGG [14A-MCF7 (37DsDs)]” gave a Kd ([1]; n = Ds, ±0.1, Mg2+) of 2.1 nM.
In the case of “CCGCGCAGCCTGGGNTCTCTTTTAGTCNAGTTCAATCGCGCGG [07-MB231 (DsDs)]”, the Kd ([3]; n = Ds at 15 and 28, ±0.5) is reported as 2.2 nM.
Work on “GGCGGTCNGTCGAACTGTNATGAGCGTGCCGCCCGCGTAGCG [14A-MCF7mh]” yielded a Kd ([1]; n = Ds, ±0.2, printed 14A-MCF7rmh) of 2.1 nM.
